Here are results for seven molecules from article PMC5727935, “The distinctive cell division interactome of Neisseria gonorrhoeae” (BMC Microbiology, 2017).

By Kd is commonly meant the concentration at which binding is half-saturated. Usually koff stands for the rate constant with which the complex falls apart. A lower koff goes with slow dissociation. Broadly, the kon is the rate constant with which the complex forms. A high value points to faster complex formation.

The target of data set [1] is N. gonorrhoeae FtsK, bacterial two-hybrid fusion (Neisseria gonorrhoeae CH811). As to the kind of experiment: two-hybrid; bacterial two-hybrid (Di Lallo): fusions to P22 and 434 repressor ends in E. coli R721, 34 °C; residual β-galactosidase activity against R721 without plasmids (2504 ± 34 Miller units); less than 50% counts as a positive interaction.
The target of data set [2] is N. gonorrhoeae FtsW, bacterial two-hybrid fusion (Neisseria gonorrhoeae CH811) (UniProt B4RQC6). The description is as above.
Data set [3] addresses N. gonorrhoeae FtsN, bacterial two-hybrid fusion (Neisseria gonorrhoeae CH811). The data set is described as above.
For data set [4], the target named is N. gonorrhoeae FtsZ, bacterial two-hybrid fusion (Neisseria gonorrhoeae) (UniProt P72079). The data set is described as above.
The target in data set [5] is T1, N. gonorrhoeae FtsQ, bacterial two-hybrid fusion (Neisseria gonorrhoeae CH811, UniProt Q5F6M1 1-242).
T1 construct: FtsQ of Neisseria gonorrhoeae CH811, amplified from genomic DNA with primers P5/P6 (start codon to stop codon); Cloned in both vectors (pcIp22 and pcI434); each fusion carries one of the two repressor ends; also called FtsQNg; pcIp22-Q; source: bacterial two-hybrid fusion, expressed in E. coli R721
T1 sequence (looked up): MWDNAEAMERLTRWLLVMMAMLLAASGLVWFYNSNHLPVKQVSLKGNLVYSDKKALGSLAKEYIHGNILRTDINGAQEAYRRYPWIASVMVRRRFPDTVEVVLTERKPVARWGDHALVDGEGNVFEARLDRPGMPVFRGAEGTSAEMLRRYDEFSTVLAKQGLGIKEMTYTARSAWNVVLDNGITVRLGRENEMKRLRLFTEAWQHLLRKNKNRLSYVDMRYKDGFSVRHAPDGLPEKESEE
The description is as above. Conditions: partners not purified.

The target in data set [6] is T2, N. gonorrhoeae FtsW, bacterial two-hybrid fusion (Neisseria gonorrhoeae CH811, UniProt B4RQC6 1-462).
T2 construct: FtsW of Neisseria gonorrhoeae CH811, amplified from genomic DNA with primers P9/P10 (start codon to stop codon); Cloned in both vectors (pcIp22 and pcI434); each fusion carries one of the two repressor ends; also called FtsWNg; pcIp22-W; source: bacterial two-hybrid fusion, expressed in E. coli R721
T2 sequence (looked up): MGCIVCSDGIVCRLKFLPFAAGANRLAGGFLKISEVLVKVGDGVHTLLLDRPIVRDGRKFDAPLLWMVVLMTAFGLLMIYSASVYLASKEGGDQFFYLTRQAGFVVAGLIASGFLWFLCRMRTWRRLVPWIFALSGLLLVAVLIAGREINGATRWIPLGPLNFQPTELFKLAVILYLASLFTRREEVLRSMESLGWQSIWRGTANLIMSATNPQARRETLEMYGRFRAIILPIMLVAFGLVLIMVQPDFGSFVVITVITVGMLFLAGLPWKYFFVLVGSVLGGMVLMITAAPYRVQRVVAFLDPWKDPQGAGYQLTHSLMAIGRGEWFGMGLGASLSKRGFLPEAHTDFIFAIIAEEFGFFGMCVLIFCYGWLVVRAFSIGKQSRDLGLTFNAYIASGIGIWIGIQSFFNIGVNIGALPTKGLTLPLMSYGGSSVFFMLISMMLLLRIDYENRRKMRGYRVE
The description is as above. The following applies: partners not purified.

The target in data set [7] is His-FtsNNg (ligand of the SPR) (Neisseria gonorrhoeae). Kind of data set: SPR; Bio-Rad XPR36, ProteOn HTE chip activated with NiSO4; His-FtsQNg or His-FtsNNg immobilised at 200 nM; two-fold dilutions of FtsANg in PBST (0.1% BSA, 0.05% Tween-20, pH 7.9), 30 μl/min, 120 s, then 300 s buffer; Langmuir 1:1 kinetic fit. A general note: Surface plasmon resonance follows binding to a sensor surface in real time, without labels.

For data set [8], the target named is T3, FtsANg (analyte of the SPR with FtsQNg and FtsNNg) (Neisseria gonorrhoeae CH811, UniProt Q5F6M2 1-414).
T3 construct: FtsA of Neisseria gonorrhoeae CH811; GST in PBST as the negative-control analyte hints at GST-FtsANg (surmise); source: E. coli C41 (DE3), purified
T3 sequence (looked up): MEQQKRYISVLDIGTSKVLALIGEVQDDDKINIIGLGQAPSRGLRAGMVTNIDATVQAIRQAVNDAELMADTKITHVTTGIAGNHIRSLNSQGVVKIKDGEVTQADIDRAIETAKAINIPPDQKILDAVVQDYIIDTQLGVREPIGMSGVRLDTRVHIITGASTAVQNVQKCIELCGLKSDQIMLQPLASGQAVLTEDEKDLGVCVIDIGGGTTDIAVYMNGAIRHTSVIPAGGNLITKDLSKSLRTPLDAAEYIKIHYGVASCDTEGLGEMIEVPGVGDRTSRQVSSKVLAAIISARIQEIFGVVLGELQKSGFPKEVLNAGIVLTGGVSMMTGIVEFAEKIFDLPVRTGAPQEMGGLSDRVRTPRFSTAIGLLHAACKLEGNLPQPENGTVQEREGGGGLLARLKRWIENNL
The description is as above. Conditions: both partners purified.

Data set [9] deals with the molecule itself. As to the kind of experiment: 90° light scattering + negative-stain electron microscopy; FtsZNg about 6 μM in MES buffer (50 mM MES-NaOH, 50 mM KCl, 10 mM MgCl2, pH 7.5), 2 mM GTP, 30 °C; polymerisation.
For data set [10], the target named is His-FtsANg (Neisseria gonorrhoeae CH811) (UniProt Q5F6M2). Kind of data set: SPR; FtsANg immobilised on the HTE chip; polymerized FtsZNg (with GTP) at 6 and 12 μM injected for 120 s, 300 s dissociation; MES buffer with 0.1% BSA, 0.05% Tween-20, 1 mM ATP, pH 7.5; Langmuir 1:1 kinetic fit.

Take “N. gonorrhoeae FtsN, bacterial two-hybrid fusion (natural protein)”: the residual β-galactosidase activity in data set [1] was 31%.

Consider “N. gonorrhoeae FtsI, bacterial two-hybrid fusion (natural protein)”, for which the residual β-galactosidase activity in [2] was determined as 35%.

B1: N. gonorrhoeae FtsA, bacterial two-hybrid fusion (natural protein, Neisseria gonorrhoeae CH811, UniProt Q5F6M2 1-414, looked up)
chain: MEQQKRYISVLDIGTSKVLALIGEVQDDDKINIIGLGQAPSRGLRAGMVTNIDATVQAIRQAVNDAELMADTKITHVTTGIAGNHIRSLNSQGVVKIKDGEVTQADIDRAIETAKAINIPPDQKILDAVVQDYIIDTQLGVREPIGMSGVRLDTRVHIITGASTAVQNVQKCIELCGLKSDQIMLQPLASGQAVLTEDEKDLGVCVIDIGGGTTDIAVYMNGAIRHTSVIPAGGNLITKDLSKSLRTPLDAAEYIKIHYGVASCDTEGLGEMIEVPGVGDRTSRQVSSKVLAAIISARIQEIFGVVLGELQKSGFPKEVLNAGIVLTGGVSMMTGIVEFAEKIFDLPVRTGAPQEMGGLSDRVRTPRFSTAIGLLHAACKLEGNLPQPENGTVQEREGGGGLLARLKRWIENNL
notes: FtsA of Neisseria gonorrhoeae CH811, amplified from genomic DNA with primers P1/P2 (start codon to stop codon); ends at Leu414 by the limits of the truncations; Cloned in both vectors (pcIp22 and pcI434); each fusion carries one of the two repressor ends; also called FtsANg; pcIp22-A; source: bacterial two-hybrid fusion, expressed in E. coli R721
Turning to B1, the residual β-galactosidase activity came to 30% in data set [1]; 24% in data set [3]; 40% in data set [4]; 48% in data set [5]; 45% in data set [6].

B2: FtsANg (analyte of the SPR with FtsQNg and FtsNNg) (natural protein)
chain: MEQQKRYISVLDIGTSKVLALIGEVQDDDKINIIGLGQAPSRGLRAGMVTNIDATVQAIRQAVNDAELMADTKITHVTTGIAGNHIRSLNSQGVVKIKDGEVTQADIDRAIETAKAINIPPDQKILDAVVQDYIIDTQLGVREPIGMSGVRLDTRVHIITGASTAVQNVQKCIELCGLKSDQIMLQPLASGQAVLTEDEKDLGVCVIDIGGGTTDIAVYMNGAIRHTSVIPAGGNLITKDLSKSLRTPLDAAEYIKIHYGVASCDTEGLGEMIEVPGVGDRTSRQVSSKVLAAIISARIQEIFGVVLGELQKSGFPKEVLNAGIVLTGGVSMMTGIVEFAEKIFDLPVRTGAPQEMGGLSDRVRTPRFSTAIGLLHAACKLEGNLPQPENGTVQEREGGGGLLARLKRWIENNL
Turning to B2, in data set [7], the Kd came to 53.3 nM, the dissociation rate constant (koff) is 0.00616 s⁻¹ and the on-rate constant (kon) was found to be 115000 M⁻¹ s⁻¹.

B3: His-FtsQNg (natural protein, Neisseria gonorrhoeae CH811, UniProt Q5F6M1 1-242, looked up)
chain: MWDNAEAMERLTRWLLVMMAMLLAASGLVWFYNSNHLPVKQVSLKGNLVYSDKKALGSLAKEYIHGNILRTDINGAQEAYRRYPWIASVMVRRRFPDTVEVVLTERKPVARWGDHALVDGEGNVFEARLDRPGMPVFRGAEGTSAEMLRRYDEFSTVLAKQGLGIKEMTYTARSAWNVVLDNGITVRLGRENEMKRLRLFTEAWQHLLRKNKNRLSYVDMRYKDGFSVRHAPDGLPEKESEE
notes: FtsQ of Neisseria gonorrhoeae CH811, full-length ftsQ (primers P17/P18) cloned BglII/EcoRI into pET30a; also called pETQ
Take B3: in data set [8], the dissociation constant Kd amounted to 15.1 nM, the koff came out at 0.00409 s⁻¹ and the on-rate (kon) was determined as 272000 M⁻¹ s⁻¹.

B4: FtsZNg, His tag cleaved with thrombin (natural protein, Neisseria gonorrhoeae CH811, UniProt P72079 1-392, looked up)
chain: MEFVYDVAESAVSPAVIKVIGLGGGGCNAINNMVANNVRSVEFISANTDAQSLAKNHAAKRIQLGTNLTRGLGAGANPDIGRAAAQEDREAIEEAIRGANMLFITTGMGGGTGTGSAPVVAEIAKSLGILTVAVVTRPFSYEGKRVHVAQAGLEQLKEHVDSLIIIPNDKLMTALGEDVTMREAFRAADNVLRDAVAGISEVVTCPSEIINLDFADVKTVMSNRGIAMMGSGYAQGIDRARMATDQAISSPLLDDVTLDGARGVLVNITTAPGCLKMSELSEVMKIVNQSAHPDLECKFGAAEDETMSEDAIRITIIATGLKEKGAVDPTPEREVEAVAPSKQEQSHIVEGMIRTNRGIRTMNLTAADFDNQSVLDDFEIPAILRRQHNSDK
notes: FtsZ of Neisseria gonorrhoeae CH811, full-length ftsZ (primers P19/P20) cloned BglII/EcoRI into pET30a; also called polymerized FtsZNg; not shown: His6, N-terminal, cleaved
For the molecule B4, the binding result in data set [9] is recorded as “binds”. Moreover, in [10], the Kd amounted to 14900 nM, the off-rate (koff) is 0.00531 s⁻¹ and the kon is 356 M⁻¹ s⁻¹.

B5: N. gonorrhoeae FtsZ, bacterial two-hybrid fusion (natural protein, Neisseria gonorrhoeae, UniProt P72079 1-392, looked up)
chain: MEFVYDVAESAVSPAVIKVIGLGGGGCNAINNMVANNVRSVEFISANTDAQSLAKNHAAKRIQLGTNLTRGLGAGANPDIGRAAAQEDREAIEEAIRGANMLFITTGMGGGTGTGSAPVVAEIAKSLGILTVAVVTRPFSYEGKRVHVAQAGLEQLKEHVDSLIIIPNDKLMTALGEDVTMREAFRAADNVLRDAVAGISEVVTCPSEIINLDFADVKTVMSNRGIAMMGSGYAQGIDRARMATDQAISSPLLDDVTLDGARGVLVNITTAPGCLKMSELSEVMKIVNQSAHPDLECKFGAAEDETMSEDAIRITIIATGLKEKGAVDPTPEREVEAVAPSKQEQSHIVEGMIRTNRGIRTMNLTAADFDNQSVLDDFEIPAILRRQHNSDK
notes: FtsZ of Neisseria gonorrhoeae; Cloned in both vectors (pcIp22 and pcI434); each fusion carries one of the two repressor ends; also called FtsZNg; pcIp22-Z; source: bacterial two-hybrid fusion, expressed in E. coli R721
Take B5: the values for the residual β-galactosidase activity in data set [1] and in data set [6] were 41% and 39%, respectively.
